Tests used:
[1] = target: decorin: CSPG (Chondroitin Sulfate Proteoglycan, Sigma) (bovine) (UniProt P21793); assay: static adhesion assay, IEs on coated CSPG
[2] = target: bovine serum albumin (bovine) (UniProt P02769); assay: static adhesion assay, IEs on coated BSA
Sequence of UniProt P02769 (P02769 25-607 limits assumed): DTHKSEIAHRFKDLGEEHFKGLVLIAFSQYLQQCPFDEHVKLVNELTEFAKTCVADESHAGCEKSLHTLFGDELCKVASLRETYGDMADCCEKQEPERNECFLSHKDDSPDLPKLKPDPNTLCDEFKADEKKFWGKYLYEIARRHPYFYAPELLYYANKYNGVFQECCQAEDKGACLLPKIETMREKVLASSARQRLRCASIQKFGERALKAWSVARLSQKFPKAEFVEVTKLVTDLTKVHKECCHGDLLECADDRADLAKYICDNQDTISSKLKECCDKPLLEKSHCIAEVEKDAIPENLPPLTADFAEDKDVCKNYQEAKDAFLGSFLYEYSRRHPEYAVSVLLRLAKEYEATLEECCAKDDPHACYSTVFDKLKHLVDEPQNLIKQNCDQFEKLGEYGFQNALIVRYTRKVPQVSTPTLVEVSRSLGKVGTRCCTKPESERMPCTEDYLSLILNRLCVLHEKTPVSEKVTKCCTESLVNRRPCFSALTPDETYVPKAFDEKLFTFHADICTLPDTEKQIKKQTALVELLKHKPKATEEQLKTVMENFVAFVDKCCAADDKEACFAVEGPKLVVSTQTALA

Sequence of UniProt P21793 (P21793 31-360 limits assumed): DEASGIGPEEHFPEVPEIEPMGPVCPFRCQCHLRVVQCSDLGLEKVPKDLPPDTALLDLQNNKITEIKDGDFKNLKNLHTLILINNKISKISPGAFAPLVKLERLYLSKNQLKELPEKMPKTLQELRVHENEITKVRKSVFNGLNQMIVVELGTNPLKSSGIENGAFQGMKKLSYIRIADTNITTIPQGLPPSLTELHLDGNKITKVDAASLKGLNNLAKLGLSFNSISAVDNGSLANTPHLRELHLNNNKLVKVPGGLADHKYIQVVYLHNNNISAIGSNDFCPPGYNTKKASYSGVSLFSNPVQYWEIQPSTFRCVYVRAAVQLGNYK

**Q.** Which Bound IEs/mm^2 on CSPG [1] does the source give for “surface of P. falciparum-infected erythrocytes of isolate 1MH016 (naturally infected pregnant person, Benin)” here?
**A.** Its Bound IEs/mm^2 on CSPG is 178 IEs/mm^2.

**Q.** And the Bound IEs/mm^2 on BSA [2]?
**A.** Its Bound IEs/mm^2 on BSA is 2 IEs/mm^2.

**Q.** Which results are given for “surface of P. falciparum-infected erythrocytes of isolate 1MMCH (naturally infected pregnant person, Benin)”?
**A.** Bound IEs/mm^2 on CSPG [1]: 394 IEs/mm^2; Bound IEs/mm^2 on BSA [2]: 2.5 IEs/mm^2

**Q.** Which results are given for “surface of P. falciparum-infected erythrocytes of isolate AK357 (naturally infected pregnant person, Benin)”?
**A.** Bound IEs/mm^2 on CSPG [1]: 337 IEs/mm^2; Bound IEs/mm^2 on BSA [2]: 2.5 IEs/mm^2

**Q.** Which Bound IEs/mm^2 on CSPG [1] does the source give for “surface of P. falciparum-infected erythrocytes of isolate AK366 (naturally infected pregnant person, Benin)” here?
**A.** The Bound IEs/mm^2 on CSPG was 357 IEs/mm^2.

**Q.** What about the Bound IEs/mm^2 on BSA [2] of the same substance?
**A.** The Bound IEs/mm^2 on BSA was 0.5 IEs/mm^2.

**Q.** How did the Bound IEs/mm^2 on CSPG [1] turn out when “surface of P. falciparum-infected erythrocytes of isolate CM307 (naturally infected pregnant person, Benin)” was run?
**A.** Its Bound IEs/mm^2 on CSPG is 623 IEs/mm^2.

**Q.** What about the Bound IEs/mm^2 on BSA [2] of the same substance?
**A.** Its Bound IEs/mm^2 on BSA is 1 IEs/mm^2.

**Q.** For “surface of P. falciparum-infected erythrocytes of isolate CM0375 (naturally infected pregnant person, Benin)”, which Bound IEs/mm^2 on CSPG [1] is on record?
**A.** The Bound IEs/mm^2 on CSPG was 63 IEs/mm^2.

**Q.** What about the Bound IEs/mm^2 on BSA [2] of the same substance?
**A.** Its Bound IEs/mm^2 on BSA is 5 IEs/mm^2.

**Q.** What does the source list for “surface of P. falciparum-infected erythrocytes of isolate CM0425 (naturally infected pregnant person, Benin)”?
**A.** Bound IEs/mm^2 on CSPG [1]: 1040 IEs/mm^2; Bound IEs/mm^2 on BSA [2]: 1 IEs/mm^2

**Q.** Which results are given for “surface of P. falciparum-infected erythrocytes of isolate CM0437 (naturally infected pregnant person, Benin)”?
**A.** Bound IEs/mm^2 on CSPG [1]: 736 IEs/mm^2; Bound IEs/mm^2 on BSA [2]: 1 IEs/mm^2

**Q.** For “surface of P. falciparum-infected erythrocytes of isolate CM445 (naturally infected pregnant person, Benin)”, which Bound IEs/mm^2 on CSPG [1] is on record?
**A.** Its Bound IEs/mm^2 on CSPG is 218 IEs/mm^2.

**Q.** And the Bound IEs/mm^2 on BSA [2]?
**A.** The Bound IEs/mm^2 on BSA was 1.5 IEs/mm^2.

**Q.** “surface of P. falciparum-infected erythrocytes of isolate WP0140 (naturally infected pregnant person, Benin)” was tested. Which Bound IEs/mm^2 on CSPG [1] did it give?
**A.** The Bound IEs/mm^2 on CSPG was 244 IEs/mm^2.

**Q.** And the Bound IEs/mm^2 on BSA [2]?
**A.** The Bound IEs/mm^2 on BSA was 2.5 IEs/mm^2.

**Q.** What does the source list for “surface of P. falciparum-infected erythrocytes of isolate WP0161 (naturally infected pregnant person, Benin)”?
**A.** Bound IEs/mm^2 on CSPG [1]: 1300 IEs/mm^2; Bound IEs/mm^2 on BSA [2]: 1 IEs/mm^2

**Q.** “surface of P. falciparum-infected erythrocytes of isolate WP0168 (naturally infected pregnant person, Benin)” was tested. Which Bound IEs/mm^2 on CSPG [1] did it give?
**A.** Its Bound IEs/mm^2 on CSPG is 473 IEs/mm^2.

**Q.** What about the Bound IEs/mm^2 on BSA [2] of the same substance?
**A.** The Bound IEs/mm^2 on BSA was 2 IEs/mm^2.

**Q.** “surface of P. falciparum-infected erythrocytes of isolate WP0182 (naturally infected pregnant person, Benin)” was tested. Which Bound IEs/mm^2 on CSPG [1] did it give?
**A.** The Bound IEs/mm^2 on CSPG was 339 IEs/mm^2.

**Q.** And the Bound IEs/mm^2 on BSA [2]?
**A.** The Bound IEs/mm^2 on BSA was 2 IEs/mm^2.

**Q.** “surface of P. falciparum-infected erythrocytes of isolate WP0200 (naturally infected pregnant person, Benin)” was tested. Which Bound IEs/mm^2 on CSPG [1] did it give?
**A.** The Bound IEs/mm^2 on CSPG was 185 IEs/mm^2.

**Q.** And the Bound IEs/mm^2 on BSA [2]?
**A.** The Bound IEs/mm^2 on BSA was 4.5 IEs/mm^2.

**Q.** For “surface of P. falciparum-infected erythrocytes of isolate WP203 (naturally infected pregnant person, Benin)”, which Bound IEs/mm^2 on CSPG [1] is on record?
**A.** Its Bound IEs/mm^2 on CSPG is 161 IEs/mm^2.

**Q.** And the Bound IEs/mm^2 on BSA [2]?
**A.** Its Bound IEs/mm^2 on BSA is 1 IEs/mm^2.
